The subject of data set [1] is Nicotiana tabacum L. Xanthi leaf explants. Briefly: Tobacco shoot regeneration with glyphosate selection after Agrobacterium-mediated transformation. The data set is classed as cell-based. The note with it: explants lacking a GAT gene. An excerpt: Agrobacterium-mediated transformation of plant cells occurs at low efficiencies. To allow propagation of transformed cells while inhibiting proliferation of non-transformed cells, a selectable marker is needed. Antibiotic markers for kanamycin and hygromycin and the herbicide modifying gene bar, which detoxifies the herbicidal compound phosphinothricin, are examples of selectable markers used in plants (Methods in Molecular Biology, 1995, 49:9-18). […] An evolved GAT gene (0—5B8), SEQ ID NO:190, was cloned between a plant promoter (enhanced strawberry vein banded virus) and a […] terminator and introduced into the T-DNA region of the binary vector pMAXY3793 suitable for transformation of plant cells via Agrobacterium tumefaciens EHA105 as shown in FIG. 12. A screenable GUS marker was present in the T-DNA to allow confirmation of transformation. Transgenic tobacco shoots were generated using glyphosate as the only selecting agent.
Axillary buds of Nicotiana tabacum L. Xanthi were subcultured on half-strength MS medium with sucrose (1.5%) and Gelrite (0.3%) under 16-h light (35-42 μEinsteins m^−2 s^−1, cool white fluorescent lamps) at 24° C. every 2-3 weeks. Young leaves were excised from plants after 2-3 weeks subculture and were cut into 3×3 mm segments. A. tumefaciens EHA 105 was inoculated into LB medium and grown overnight to a density of A600=1.0. […]

The nature of data set [2]: GAT activity of native YitI. Format: biochemical.
Data set [3] relates to Nicotiana benthamiana leaves. In words: Transient expression by Agrobacterium infiltration, GAT protein by SDS-PAGE and blot with antiGAT polyclonal antibody. The data set is classed as in vivo. The note with it: infiltrated leaves, 3 days, as a percent of total protein. The procedure: A binary vector with a dMMV-gat-UBQ3 cassette in the T-DNA was transformed into competent Agrobacterium tumefaciens strain C58 cells by electroporation (McCormac et al., Mol. Biotechnol. 9:155-159, 1998). After growth on LB+40 ug/ml kanamycin plates for 2 days at 28° C., colonies were inoculated into LB+40 ug/ml kanamycin liquid medium and shaken overnight at 28° C. The Agrobacterium cells were collected by centrifugation at 4000 g for 10 minutes and then resuspended in a volume of 10 mM MgSO4 equivalent to the initial culture volume. This bacterial suspension was forced or “infiltrated” into the intercellular spaces of Nicotiana benthamiana leaves using a 1 ml plastic syringe (with no needle). By infiltrating 200-300 μl of bacterial suspension into each spot (typically 3-4 cm^2 in infiltrated area), 4 or more spots could be arranged on a single leaf still attached to the plant. In some cases the gat-containing Agrobacterium strain was diluted 5:1 or 10:1 with a second Agrobacterium strain lacking gat prior to infiltration. This dilution step has the effect of reducing the overall expression of the gat gene in the plant cells, thereby preventing saturation and allowing easier visualization of expression differences between variants and constructs. After 3 days the leaf material was ground, extracted in aqueous buffer, and centrifuged. […]

Data set [4] in a line: GAT activity with substrate glyphosate (amino acid substrate study, DTNB). Format: biochemical. The note with it: Substrate Glyph, relative to 401. As to the method:
(§1) GAT activity of several GAT polypeptides of the present invention was evaluated with respect to a number of amino acid substrates. The GAT polypeptide, AcCoA and amino substrate were incubated in 25 mM Hepes, pH 6.8, 10% ethylene glycol in the wells of a 96-well polystyrene plate. After 30 minutes, the reactions were stopped by the addition of 30 μl of 10 mM 5,5′-dithiobis-2-nitrobenzoate (DTNB) in 500 mM Tris, pH 7.5. After 2 minutes, absorbance was read at 412 nm in a Spectramax Plus plate reader (Molecular Devices, Sunnyvale, Calif.).

The nature of data set [5]: GAT activity with substrate L-aspartate (DTNB). The note with it: for kcat/KM % of glyph: Substrate Aspartate. The data set is classed as biochemical. The procedure:
as §1

Data set [6] can be described thus: GAT activity with substrate L-serine (DTNB). The data set is classed as biochemical. The note with it: for kcat/KM % of glyph: Substrate Serine. The procedure: as §1
Data set [7] can be described thus: Transfer of the propionyl group from propionyl CoA to glyphosate, DTNB detection. Conditions: 1 mM propionyl CoA, 5 mM glyphosate or no glyphosate, 30 minutes. Format: biochemical. As to the method:
The ability of GAT variants (B6 (SEQ ID NO:7), 0—6D10 (SEQ ID NO:448), 17-15H3 (SEQ ID NO:601), and 20-8H12c (SEQ ID NO:817)) to transfer the propionyl group from propionyl CoA to glyphosate was tested in reaction mixtures containing 5 mM glyphosate or no glyphosate. Propionyl CoA was present at 1 mM. After 30 minutes the reactions were terminated and the presence of free […] was determined by the addition of DTNB.

A further data set has as its system maize plants. In words: Effect of temperature variation on glyphosate tolerance of T1 maize expressing GAT transgenes. Format: in vivo. The note with it: cool/cold, warm and hot conditions, 0×, 4×, 6×, 8× glyphosate at V2, scored 5 and 14 days. As to the method:
Maize plants expressing GAT variant transgenes 10—4F2 (SEQ ID NO:203), 17-15H3 (SEQ ID NO:549), and 18-28D9b (SEQ ID NO:814) were produced using the methods described in Example 13. The effect of temperature on glyphosate tolerance was evaluated in T1 plants. The T1 plants were grown in cool/cold (day 14° C., night 8° C.), warm (day 28° C., night 20° C.), and hot (day 37° C., night 20° C.) conditions. T1 plants were sprayed at V2 with four different glyphosate spray treatments (0×, 4×, 6×, and 8×). Plants were scored at 5 and 14 days after treatment for leaf discoloration and plant height comparisons as described in Example 13.

Data set [8] is classed as physicochemical. The note with it: buffer, pH 7.2. The procedure:
The half lives of several GAT polypeptides were also measured at 37.5° C. according to the following procedure. GAT polypeptides 401 (SEQ ID NO: 6), 17-15H3 (SEQ ID NO: 601), 20-8H12 (SEQ ID NO: 739), 22-13B12 (SEQ ID NO: 781), 22-15B4 (SEQ ID NO: 946) and 22-18C5 (SEQ ID NO: 795) were incubated in a matrix of 25 mM Hepes, pH 7.2, 10 mM KCl and 10% methanol (“HKM”). At various timepoints, aliquots were withdrawn and assayed in triplicate at 22° C. using the continuous spectrophotometric assay described in Example 7 using saturating concentrations of glyphosate (20 mM for 401, 5 mM for the rest) and AcCoA (167 uM). The standard error at each time point averaged about 2.9%. GAT activity was plotted as a function of incubation time and the data was fitted to a curve for exponential decay (y=e^−x), where y is enzyme activity and x is time in hours, from which half life was calculated.

Turning to `O=C(O)CNCP(=O)(O)O` [Glyphosate, N-phosphonomethylglycine], the “Glyphosate concentrations that completely inhibited any shoot formation” value in [1] was “greater than 20 uM”.

B1: YitI: most closely related sequence available in Genbank, yitI from Bacillus subtilis (protein, UniProt O06744 1-149, looked up)
Uncharacterized …: MLEVKTISVEDTYEIRHRILRPHQSIEQCKYKEDHAEGSFHLGVFYDGTLISIASFSPQSQPLLTEASAYRLRGMATLEGYRDQKAGSTLIKHAEHKLAESGVQAVWCNARHHVKGYYAKLGWKELGEPFDIPGIGNHIVMYKTLRTSR
With B1, in data set [2], the GAT activity entry is “detectable GAT activity”.

B2: GAT4620: altered gat coding sequence encoding 25-8H7 M1MA; Ala codon inserted, first 7 codons more frequently utilized, Ser 62 and Arg 111 changed (nucleic acid)
DNA: ATGGCTATTGAGGTTAAACCTATTAACGCAGAGGATACCTATGACCTAAGGCATAGAGTCCTCAGACCAAACCAGCCGATAGAAGCGTGTATGTTTGAAAGCGATTTAACGCGTAGTGCATTTCACTTAGGCGGCTTCTACGGGGGCAAACTGATTTCCGTCGCTTCATTCCACCAGGCCGAGCACTCTGAACTTCAAGGCAAGAAACAGTACCAGCTTCGAGGTGTGGCTACCTTGGAAGGTTATCGTGAGCAGAAGGCGGGTTCCAGTCTAGTTAAACACGCTGAAGAAATTCTACGTAAGAGGGGGGCGGACATGATTTGGTGTAATGCGAGGACATCTGCCTCAGGCTACTACAGAAAGTTAGGCTTCAGCGAGCAGGGAGAGGTATTCGACACGCCGCCAGTAGGACCTCACATCCTGATGTATAAAAGGATCACATAA
modifications: Synthetic nucleic acid sequence GAT4620; CDS (1)...(444): encodes 25-8H7 M1MA (SEQ ID NO:950)
notes: Ala codon inserted, first 7 codons more frequently utilized, Ser 62 and Arg 111 changed
On to B2, for which the “level of GAT protein accumulated compared to the unmodified GAT25-8H7/4618 gene” value in [3] is reported as “comparable”.

B3: 25-8H7: further evolved GAT enzyme, SEQ ID NO:907; gene GAT25-8H7/4618 SEQ ID NO:906 (protein)
chain: MIEVKPINAEDTYDLRHRVLRPNQPIEACMFESDLTRSAFHLGGFYGGKLISVASFHQAEHSELQGKKQYQLRGVATLEGYREQKAGSSLVKHAEEILRKRGADMIWCNARTSASGYYRKLGFSEQGEVFDTPPVGPHILMYKRIT
modifications: 25-8H7
Regarding B3, the “kcat/KM Fold imp.” value in data set [4] is on record as 7031 fold. Moreover, in [5], the “increase in activity with aspartate compared to native GAT polypeptide” value is listed as 40 fold and the “kcat/KM % of glyph” value is 0.520%. Besides, in data set [6], the “activity with respect to serine and phosphoserine compared to native GAT polypeptide” value was “loss of activity”; the “kcat/KM % of glyph” value was found to be 0.00855%.

B4: 17-15H3: evolved GAT; polypeptide SEQ ID NO:601, transgene SEQ ID NO:549 (protein)
chain: MIEVKPINAEDTYELRHRILRPNQPIEACMFESDLLRGAFHLGGYYGGKLISIASFHQAEHSELQGQKQYQLRGMATLEGYREQKAGSSLIKHAEEILRKRGADLLWCNARTSASGYYKKLGFSEQGEVFDTPPVGPHILMYKRIT
modifications: D_S00260796_17-15H3
With B4, the “glyphosate-dependent hydrolysis of propionyl CoA” value in [7] was “showed glyphosate-dependent hydrolysis of propionyl CoA”. Also, in the data set with maize plants, the “effect of growth temperature on glyphosate tolerance” value is “not adversely effected”. In addition, the “Half-life” value in [8] was 45 h. For the same molecule, the “kcat/KM Fold imp.” value in data set [4] came to 1086 fold. In data set [5], the “increase in activity with aspartate compared to native GAT polypeptide” value worked out at 40 fold and the “kcat/KM % of glyph” value came out at 3.24%. Further, in [6], the “activity with respect to serine and phosphoserine compared to native GAT polypeptide” value is given as “loss of activity”; the “kcat/KM % of glyph” value was found to be 0.0882%.

B5: GAT4621: altered gat coding sequence encoding 25-8H7 M1MA; Ala codon inserted and more frequently utilized codons throughout (nucleic acid)
DNA: ATGGCTATTGAGGTTAAGCCTATCAACGCAGAGGATACCTATGACCTTAGGCATAGAGTGCTCAGACCAAACCAGCCTATCGAAGCCTGCATGTTTGAGTCTGACCTTACTAGGAGTGCATTTCACCTTGGTGGATTCTACGGAGGTAAACTGATTTCCGTGGCTTCATTCCACCAAGCTGAGCACTCTGAACTTCAAGGTAAGAAGCAGTACCAGCTTAGAGGTGTGGCTACCTTGGAAGGTTATAGAGAGCAGAAGGCTGGTTCCAGTCTCGTGAAACACGCTGAAGAGATTCTCAGAAAGAGAGGTGCTGACATGATCTGGTGTAATGCCAGGACATCTGCTTCAGGATACTACAGGAAGTTGGGATTCAGTGAGCAAGGAGAGGTGTTCGATACTCCTCCAGTTGGACCTCACATCCTGATGTATAAGAGGATCACATAA
modifications: Synthetic nucleic acid sequence GAT4621; CDS (1)...(444): encodes 25-8H7 M1MA (SEQ ID NO:950)
notes: Ala codon inserted and more frequently utilized codons throughout
As for B5, the “level of GAT protein accumulated compared to the unmodified GAT25-8H7/4618 gene” value in data set [3] is “about two-fold greater”.

Source of the values: patent US7666644B2, “Glyphosate-N-acetyltransferase (GAT) genes” (Verdia, Inc., priority 2004, dated 2010).
